Results taken from publication PMC9817140.

Target: T1, RpoN (sigma-54) (Vibrio parahaemolyticus RIMD2210633) (UniProt Q87LE2)
T1 sequence: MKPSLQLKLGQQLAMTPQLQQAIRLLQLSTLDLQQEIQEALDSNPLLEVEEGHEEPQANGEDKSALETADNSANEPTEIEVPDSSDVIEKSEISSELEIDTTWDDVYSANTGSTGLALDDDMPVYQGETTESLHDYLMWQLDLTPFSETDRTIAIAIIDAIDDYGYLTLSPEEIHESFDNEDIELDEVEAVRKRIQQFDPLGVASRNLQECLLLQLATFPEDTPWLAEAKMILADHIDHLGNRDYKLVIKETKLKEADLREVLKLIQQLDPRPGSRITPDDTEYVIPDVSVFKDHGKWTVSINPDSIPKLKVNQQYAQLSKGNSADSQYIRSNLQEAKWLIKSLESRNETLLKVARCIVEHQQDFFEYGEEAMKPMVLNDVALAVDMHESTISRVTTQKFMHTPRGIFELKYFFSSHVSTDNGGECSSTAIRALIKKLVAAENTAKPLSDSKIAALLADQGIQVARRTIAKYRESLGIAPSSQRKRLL
Experiment: EMSA
Settings: EMSA: 20 µl with 10 ng FAM probe, 4 µl EMSA buffer (10 mM NaCl, 0.1 mM DTT, 0.1 mM EDTA, 10 mM Tris pH 7.4), 1 µl poly-dIdC, 25 °C 0.5 h, 6% native PAGE

| Sequence | binding |
| --- | --- |
| GTGCCTTGTCAAAAGATATAGCCATGTTTGCCTCTACAATTAAGAACTGACCGTTATTAATAACTAAAAAACCGGAAACGCTAAAACACCTATCAGCTATTGACGTTTTAGATTGCAATAAGCAAGCCAAAGTAACTGGAATGTCGTATCACTTCGCTTACTTGAATAAAGATACACCCTGCAGAGGGAGCAGGGCAAAGTCCGACAACAGATTAGCGAGGGGAAACTCGAAATCTCATCTCATATAGACAAAATCGTCGACCTGCAGGCA (double strand) [ΔflgB promoter (RpoN site deleted)] | no binding |
| TGCCTGCAGGTCGACGATATCTTAATTCGCACCACTTTAGTGCAGACGTAGATCATTTTGGTGCAATCATTTGCACCAAACTAGCATCTAAAAACACAATTCATTGAAATTAATGGAATATTTTTTTTGGCACGGTTTTGGCTTTAGTAAACACAGCATCGATTAATGAAAAGTCAAAAAGATTAATCAATGCCGGGTTCATGAATATTTCATAAGTCGAGCTTTTACCGCTTATTAACACTGGAGGTTATCCAAG (double strand) [VP0121 promoter] | binds |
| TGCCTGCAGGTCGACGATCCTTGTTTTATCCCATGGTCAGCGGGCGCGAAGGCGGCACCGGACTTGGGTTGTCCATCTCACAAAATTTGATCGACCAGCACAACGGAAAAATCGACGTTGAAAGCTGGCCTGGCCACACCACTTTTACAATTTATTTGCCGATTTGACCTCACGAATGGATTTCGTTGAGCGCCAATTTACGGTTTTTGCTGCAAGGATTAGTAC (double strand) [VP0118 promoter] | no binding |
| TGCCTGCAGGTCGACGATCGCCGGAACATCGTCATTAATCGTACAAAAAGCAAAATTAAGAAAAATATAAAACAATCAATGGATTGTGCTGTTATTTAGCTTTGAGTCATTATTTTGGCGTTGATTTTGGTACATAGATTGCTTAAGTCGACTAATTATCAACTATACCTAAACTTTTAGGCGAAAGTGGTCGCGTATAAACATTAGACATACGTATTAAAGTGCGTATTCGCGTGACGCTTCAATTCGATTGAGATACCTCGCAGT (double strand) [flhA promoter] | no binding |
| TGCCTGCAGGTCGACGATCTGCAAGTGAAGCAGAAAATCGAAAGTATGTGACCTTTTGGGGTTGCCGCGTACGCGAATCATTGAGGCTTGCCATCGTGCAAGCCTTTATTTTACCTGAATTTACTACTCTAAATCCCACTTGGCACATCTTTTGCTTTTACTTGTCTAGGTGATCGGTATTTACCGATCTTATTTCGTTTTTGGGGGCAGGTATGGCGTCAGATCTTCTG (double strand) [flgK promoter] | no binding |
| TGCCTGCAGGTCGACGATCTTGGCTTGATAACATCATGACATTCATCTGATGCTTAGCCTGAAAACACCTCAGTTCAGGCTAAGCATGCTTTGATCTCTGGTTTGCCGCTGTTGCCGCCACATGGATCAAAATCTTGCCTCCCTTTGCAGTTTTTTTTCATTGAATATCCTTCTTGATTGCCTTTAATCTCATTCAAGTTTTTGATAAATAAGTTTATTTTTATTTTGGCATAACTATTGCTTTTACTCCGGAAGTACAGAGACTTTTTTGGAGTAA (double strand) [flgF promoter] | no binding |
| TGCCTGCAGGTCGACGATGAGCTGCTGATATGCTGGGTATGCGCCGTACAACGTTGGTTGAGAAAATGCGCAAGTATAATTTGCAGCGTTAGATCGAGCTTCAGTTCAATCACAAAAGTTATCTTTTCTGACATTAAAATCAGACATTTCTCGGTGTCAACTTATTGTCGATAACATAACGTCATGATAAATATAAAAATAGCTTGGTACGCTAATTGCTTACCAAGCTATTTTACTTTTTAGTGGCGATATTTCGACAGGCAGTGA (double strand) [flaL promoter] | no binding |
| TGCCTGCAGGTCGACGATGATATTTTATTGGCATGACATTTGCTATTTGTTGCTCAATACTAATCTGGTTGAAGTTAGCACGGACGCACTGCGTAGTATTCATCGCCTATAGATGGCGGAATAAGAATGCTCATTGATAAGTTAATCAGCAGAATCTCCGGCGCTAACTACACTAAGAGATGGAAAAGACTATCCATGTTCATAAATGGAATTGAGC (double strand) [VP1510 promoter] | no binding |
| TGCCTGCAGGTCGACGATGTCCTGTCGAAAGAATTCCTAATAACAGTATCCACTTTGAGGAAATTAGAGTTTTCCCCCTAATTTTTTTGCTTTCCGTAAACCGGAAGTTTGGTTTCCACTCTTGTTTGTAAGTCATTGATAAATATAAATAAAATTTATGGCACGTATCTTGTTTGTATCTTGGCGTATTCGAGCCGACTGTAAGGAAAGATGCATGGCGATCACATTTGAAAATGCTTTAGGTGTACATCCAG (double strand) [flgB2 promoter] | binds |
| TGCCTGCAGGTCGACGATGTGGAATGTAATGGCCGACGCAAAGAAATGGCAGAGAAGTTGGGCATAAGCCCGCGTACTCTGCGCTACAAACTTGCCAAAATGCGTGACGCGGGTATAGATATTCCGAGTTAGGTTTCACACGCGTAGCCATAAGACAAAAGTGTGAGTAAACTATACAGCTGGCGTCTTATGGCACATAAATTGCTGTGTCAATAATTAGTTTAAATAGATAGTCAAACTTTTGGCTCAGAGGTGATA (double strand) [fliE promoter] | binds |
| TGCCTGCAGGTCGACGATGTGGAATGTAATGGCCGACGCAAAGAAATGGCAGAGAAGTTGGGCATAAGCCCGCGTACTCTGCGCTACAAACTTGCCAAAATGCGTGACGCGGGTATAGATATTCCGAGTTAGGTTTCACACGCGTAGCCATAAGACAAAAGTGTGAGTAAACTATACAGCTGGCGTCTTGTCAATAATTAGTTTAAATAGATAGTCAAACTTTTGGCTCAGAGGTGATA (double strand) [ΔfliE promoter (RpoN site deleted)] | no binding |
| TGCCTGCAGGTCGACGATTCTCTTTGCCTTAATCTTATGCCGATCAAAGCACATCGGAAACTAACGCTAAAACGGTAGCAAACCCCAACTTAGTGGAATGCAAGTCACTAAAAATCATCAATTTTGATCTTTTTTAGAAAATTTTTAATTTTCAAATTAATCATTAGTGGCAAGCGACCGCCTCTAGTTAGTGACTAGGGAATATCCCAAGGCCTGAAAGAAATAGTGATAAACTAAGGAGACTAAG (double strand) [lafA promoter] | binds |
| TGCCTGCAGGTCGACGATTCTGTAAATAATAATTGAGAGTTGCTTCATAATAACTATTATTAGTTATAAATATCGCTTAATTTAAATCTAATTTAAAGATATAAAGGAGCGTATTTAAAATGAAGTTTTTGATACATCAATCATTAATTATCATTATTCAGATAATTTAATTAATACGAAATATGTCAATTAATAATGCTCTAGGAGATTAGC (double strand) [hcp2 promoter] | binds |
| TGCCTGCAGGTCGACGATTTAATCAACACGTCACATTCCTAAAATGAATTAAATATTTTCAGCTTTTTAGTCGCCTTGTCTTATAGGGAAACACTAGATGTTTTCGAGAGGAAGGCGGAACACATAAGGTGGAAAATACACTTCCTCTCAAATTTAAATAGTATCGCAAGTCAATGTTTTAAAAGAATATTCAAGTTAGGCACGTATCTTGCGATAAGACATACTTTCAAGGCATAGAGTTACGCCAATTACCAATGAGAGAGGGAGTAAGCTC (double strand) [lafB promoter] | no binding |
| TGCCTGCAGGTCGACGATTTTTGGACTCAACGTAACATTTTTCAATTTTGCCTCTCGTCACATCGCGTGAGTATCGAGTACAAAAATAAAATTTAATGTTCACCACATCCTTGTCGCCTATTGGATTTAGAACATGATGATGAGGACCACAGC (double strand) [flgM promoter] | no binding |
| TTTTGGACCATCCGTCAGTAAATCAAACCCTTCTGGATGTATCAACTGCAGCGGTAACACTTGCGCCAATTGCGCCAATTTTTGCCCAGATTGACCGCCTATTTTAACCTCTGTCGAGCCATCGCGCTGCTTATTAATGCCGATAGGTAGCTCAAATTGATCCGAGTTCAAAAAACGACCATGAACAAACAGTTCATCACACTCATTTTGAATCACACGACCAGTGAGAGAGCTTTTGAATGAGCGACCATGCCCGAGTAAATAAATCGCTTCTAGGACAATCGTCGACCTGCAGGCA (double strand) [gyrB promoter] | no binding |
